Experimental data from the supplement of paper PMC9233669.
Fewer inactive variants are shown than the library holds.

Tests used:
[1] = system: biotinyl-Ile-oxazolone; assay: self-aminoacylation, catalytic enhancement (BIO) (fold over background); higher = more active; k-Seq, kA / k0A0; sequences stand for … in GGGAAUGGAUCCACAUCUACGAAUUC…UUCACUGCAGACUUGACGAAGCUG
Summary of the method: (§1)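 The uncatalyzed rate is the low-activity peak of a bimodal Gaussian fit, and catalytic enhancement is median kA divided by it. The kA values came from pseudo-first-order fits, with 1000 bootstraps, of per-sequence fraction reacted measured by streptavidin capture, triplicate qPCR and Illumina sequencing. Mutagenized RNA pools with a 21-nt variable region (0.43 μM) were reacted with each biotinyl-aminoacyl-oxazolone at 2–1250 μM in 50 μL HEPES/NaCl/KCl/MgCl2/CaCl2 buffer with 5% acetonitrile, pH 6.9–7.0, for 90 minutes at room temperature.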

[2] = system: biotinyl-Val-oxazolone; assay: self-aminoacylation, catalytic enhancement (BVO) (fold over background); higher = more active; k-Seq, kA / k0A0; sequences stand for … in GGGAAUGGAUCCACAUCUACGAAUUC…UUCACUGCAGACUUGACGAAGCUG
Summary of the method: as §1

[3] = system: biotinyl-Trp-oxazolone; assay: self-aminoacylation, catalytic enhancement (BWO) (fold over background); higher = more active; k-Seq, kA / k0A0; sequences stand for … in GGGAAUGGAUCCACAUCUACGAAUUC…UUCACUGCAGACUUGACGAAGCUG
Summary of the method: as §1

[4] = system: biotinyl-Phe-oxazolone; assay: self-aminoacylation, catalytic enhancement (BFO) (fold over background); higher = more active; k-Seq, kA / k0A0; sequences stand for … in GGGAAUGGAUCCACAUCUACGAAUUC…UUCACUGCAGACUUGACGAAGCUG
Summary of the method: as §1

[5] = system: biotinyl-Leu-oxazolone; assay: self-aminoacylation, catalytic enhancement (BLO) (fold over background); higher = more active; k-Seq, kA / k0A0; sequences stand for … in GGGAAUGGAUCCACAUCUACGAAUUC…UUCACUGCAGACUUGACGAAGCUG
Summary of the method: as §1

[6] = system: biotinyl-Met-oxazolone; assay: self-aminoacylation, catalytic enhancement (BMO) (fold over background); higher = more active; k-Seq, kA / k0A0; sequences stand for … in GGGAAUGGAUCCACAUCUACGAAUUC…UUCACUGCAGACUUGACGAAGCUG
Summary of the method: as §1

Sequence	self-aminoacylation [1]	self-aminoacylation [2]	self-aminoacylation [3]	self-aminoacylation [4]	self-aminoacylation [5]	self-aminoacylation [6]
AUUACCCUCGUCAUCGGGUGA [Fam2.1 aminoacylation ribozyme variant]	2.39	2.77	3.81	24.1	4.5	3.84
AUUACCCUCGUCAUCGUGUGA [Fam2.1 aminoacylation ribozyme variant]	1.15	1.22	1.65	1.22	1.47	1.47
AUUACCCUCGUCAUCUAGUGA [Fam2.1 aminoacylation ribozyme variant]	2.3	2.7	4.43	9.86	3.57	3.26
AUUACCCUCGUUAUCGAGUGA [Fam2.1 aminoacylation ribozyme variant]	5.66	5.63	17	91.9	13.9	13.8
AUUACCCUGAUCAACGAGUGA [Fam2.1 aminoacylation ribozyme variant]	6.3	6.16	18.5	66.4	15	14.6
AUUACCCUGAUCAUAGAGUGA [Fam2.1 aminoacylation ribozyme variant]	6.32	6.89	17.7	70.5	15.1	15.8
AUUACCCUGAUCAUCGAAUGA [Fam2.1 aminoacylation ribozyme variant]	0.936	0.871	0.561	0.602	0.898	0.93
AUUACCCUGAUCAUCGAGUGA [Fam2.1 aminoacylation ribozyme variant]	3.8	4.15	9.57	21.8	7.82	7.96
AUUACCCUGAUCAUCGAGUUA [Fam2.1 aminoacylation ribozyme variant]	1.02	1.11	0.61	0.549	0.958	0.824
AUUACCCUGAUCAUCGGGUGA [Fam2.1 aminoacylation ribozyme variant]	5.24	5.38	10.7	67.3	9.62	9.51
AUUACCCUGAUCCUCGAGUGA [Fam2.1 aminoacylation ribozyme variant]	2.35	2.52	3.91	8.63	3.73	3.7
AUUACCCUGAUCUUCGAGUGA [Fam2.1 aminoacylation ribozyme variant]	2.56	2.74	6.11	15.7	5.04	4.57
AUUACCCUGCACAUCGAGUGA [Fam2.1 aminoacylation ribozyme variant]	3.01	3.65	8.38	29.8	7.49	6.87
AUUACCCUGCUAAUCGAGUGA [Fam2.1 aminoacylation ribozyme variant]	1.44	1.58	3.01	11.2	2.41	2.41
AUUACCCUGCUCAUCGAGUGG [Fam2.1 aminoacylation ribozyme variant]	0.831	0.81	0.578	0.52	1.09	1
AUUACCCUGCUCAUUGAGUGA [Fam2.1 aminoacylation ribozyme variant]	2.27	2.39	5.58	19.1	4.39	4.57
AUUACCCUGGACAUCGAGUGC [Fam2.1 aminoacylation ribozyme variant]	0.87	0.852	0.573	1.19	0.793	0.807
AUUACCCUGGACAUCGAGUUA [Fam2.1 aminoacylation ribozyme variant]	0.805	0.75	0.639	0.728	0.772	0.682
AUUACCCUGGACAUCGUGUGA [Fam2.1 aminoacylation ribozyme variant]	1.39	1.44	2.5	10.9	2.45	2.41
AUUACCCUGGACAUUGAGUGA [Fam2.1 aminoacylation ribozyme variant]	4.56	4.58	13.4	69.4	10.4	11.3
AUUACCCUGGCCAUCGAGCGA [Fam2.1 aminoacylation ribozyme variant]	2.02	1.93	2.39	9.68	1.66	1.61
AUUACCCUGGCCAUCGAUUGA [Fam2.1 aminoacylation ribozyme variant]	0.753	0.974	0.913	0.28	0.851	1.03
AUUACCCUGGGCAUCGAGUCA [Fam2.1 aminoacylation ribozyme variant]	0.946	0.768	0.708	0.615	0.72	0.719
AUUACCCUGGGCAUCGAGUGA [Fam2.1 aminoacylation ribozyme variant]	2.57	2.75	5.82	21.4	5.1	4.85
AUUACCCUGGGCAUCGAGUUA [Fam2.1 aminoacylation ribozyme variant]	0.909	1.11	0.678	1.15	0.805	0.642
AUUACCCUGGGCAUCGAUUGA [Fam2.1 aminoacylation ribozyme variant]	0.645	0.648	0.622	0.38	0.749	0.593

Sequence	self-aminoacylation [1]	self-aminoacylation [2]	self-aminoacylation [3]	self-aminoacylation [4]	self-aminoacylation [5]	self-aminoacylation [6]
AUUACCCUGGGCAUCUAGUGA [Fam2.1 aminoacylation ribozyme variant]	3	3.38	7.33	44.6	7.13	6.2
AUUACCCUGGUAAACGAGUGA [Fam2.1 aminoacylation ribozyme variant]	7.26	7.77	20.1	150	19.1	19.8
AUUACCCUGGUAAUCGAGGGA [Fam2.1 aminoacylation ribozyme variant]	1.1	1.04	0.832	0.55	0.931	0.924
AUUACCCUGGUAAUCGAGUGA [Fam2.1 aminoacylation ribozyme variant]	3.7	3.82	9.96	54.5	8.46	8.63
AUUACCCUGGUCAAAGAGUGA [Fam2.1 aminoacylation ribozyme variant]	4	4.26	10.5	45.6	8.08	8.35
AUUACCCUGGUCAACAAGUGA [Fam2.1 aminoacylation ribozyme variant]	3.48	3.85	8.34	23.2	6.6	7.83
AUUACCCUGGUCAACGAGAGA [Fam2.1 aminoacylation ribozyme variant]	0.807	0.904	0.896	0.544	0.664	0.82
AUUACCCUGGUCAAGGAGUGA [Fam2.1 aminoacylation ribozyme variant]	1.94	2.04	3.32	3.96	2.87	3.47
AUUACCCUGGUCACCGUGUGA [Fam2.1 aminoacylation ribozyme variant]	1.98	2.06	5.51	21.1	3.95	3.88
AUUACCCUGGUCACCUAGUGA [Fam2.1 aminoacylation ribozyme variant]	2.12	2.49	5.72	25.9	4.95	4.99
AUUACCCUGGUCAGCGAGAGA [Fam2.1 aminoacylation ribozyme variant]	1.43	1.51	1.54	0.961	1.26	1.27
AUUACCCUGGUCAGCGAGUAA [Fam2.1 aminoacylation ribozyme variant]	1.19	1.27	0.914	0.633	1.14	1.48
AUUACCCUGGUCAGGGAGUGA [Fam2.1 aminoacylation ribozyme variant]	2.57	2.54	2.41	18.9	3.27	3.36
AUUACCCUGGUCAUAGAGUGA [Fam2.1 aminoacylation ribozyme variant]	4.72	4.94	11.9	54.8	9.8	10.4
AUUACCCUGGUCAUAGGGUGA [Fam2.1 aminoacylation ribozyme variant]	4.03	3.12	7.12	42.3	7.73	6.67
AUUACCCUGGUCAUCAAAUGA [Fam2.1 aminoacylation ribozyme variant]	1.1	0.806	0.735	1.1	0.969	1.14
AUUACCCUGGUCAUCAAGCGA [Fam2.1 aminoacylation ribozyme variant]	0.846	1.13	0.661	0.84	0.895	1
AUUACCCUGGUCAUCAAGUGA [Fam2.1 aminoacylation ribozyme variant]	1.51	1.79	2.87	4.11	2.25	2.31
AUUACCCUGGUCAUCCAUUGA [Fam2.1 aminoacylation ribozyme variant]	1.08	1.08	0.684	1.15	1.14	0.84
AUUACCCUGGUCAUCCCGUGA [Fam2.1 aminoacylation ribozyme variant]	3.61	4.22	9.33	43.3	9.66	7.44
AUUACCCUGGUCAUCGAAUGU [Fam2.1 aminoacylation ribozyme variant]	0.894	0.788	0.653	0.64	1.06	0.925
AUUACCCUGGUCAUCGAAUUA [Fam2.1 aminoacylation ribozyme variant]	1.26	1.18	0.504	0.751	0.955	1.5
AUUACCCUGGUCAUCGAGCGA [Fam2.1 aminoacylation ribozyme variant]	2.15	2.18	3.33	3.41	3.7	3.51
AUUACCCUGGUCAUCGAGUCG [Fam2.1 aminoacylation ribozyme variant]	0.765	0.976	0.725	0.759	0.794	0.797
AUUACCCUGGUCAUCGAGUUA [Fam2.1 aminoacylation ribozyme variant]	4.08	4.86	8.28	26.4	10.3	10.8
